Laboratory results published in PMC4154765, “Crystal Structure of the Mineralocorticoid Receptor DNA Binding Domain in Complex with DNA” (PLoS ONE, 2014).

Columns and labels:
GR DBD = GR DBD (UniProt P04150 417-506); assay: fluorescence polarization; 10 nM DNA; slight positive cooperativity; endpoint called affinity; FP: 100 mM NaCl, 20 mM Tris-HCl pH 7.4, 5% glycerol, 10 nM FAM-GRE; temperature not stated; details: protein: recombinant; chain copies: 2; label: 5' 6-FAM on strand 1; blunt
MR DBD [1] = biological target: T1, MR DBD (human, UniProt P08235 593-671); assay: as above; details: protein: recombinant; tags: 6xHis (pMCSG7 vector); chain copies: 2; label: 5' 6-FAM on strand 1; blunt
MR DBD [2] = biological target: T1, MR DBD; assay: X-ray crystallography; DBD dimer on two half sites; 2.4 A; FP: 100 mM NaCl, 20 mM Tris-HCl pH 7.4, 5% glycerol, 10 nM FAM-GRE; temperature not stated; details: protein: recombinant; tags: 6xHis (pMCSG7 vector); chain copies: 2
[3] = biological target: the molecule itself; assay: crystal structure; MR DBD crystallised with a 17 base pair GRE DNA, 2:1 molar ratio of DNA to protein, protein at 3.0 mg/ml; hanging-drop vapor diffusion, 0.2 M sodium malonate, 12% PEG 3350; the DBD dimer is seen bound to the two DNA half sites

Chain of GR DBD (P04150 417-506): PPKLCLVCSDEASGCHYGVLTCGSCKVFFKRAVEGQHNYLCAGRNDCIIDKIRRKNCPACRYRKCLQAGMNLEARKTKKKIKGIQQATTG

B1: FAM-GRE (dsDNA)
DNA 1: CCAGAACAGAGTGTTCTGA
DNA 2: TCAGAACACTCTGTTCTGG
GR DBD
  Kd: 53 nM
MR DBD [1]
  Kd: 55 nM

B2: GRE 17 bp (crystal) (dsDNA)
DNA 1: GTCTTGTCTCACAAGAC
DNA 2: GTCTTGTGAGACAAGAC
MR DBD [2]
  binding result: binds

B3: human mineralocorticoid receptor DNA binding domain (domain or fragment, UniProt P08235 593-671, looked up)
chain: STGSSRPSKICLVCGDEASGCHYGVVTCGSCKVFFKRAVEGQHNYLCAGRNDCIIDKIRRKNCPACRLQKCLQAGMNLG
notes: Cloned into pMCSG7, 'which contains a 6X-histidine tag'; Two copies of the chain form the dimer on the GRE DNA in the crystal; also called MR DBD; MR
[3]
  binding result: binds
